Assay results as given in the DeepSol protein solubility set.

Assay: soluble on expression in E. coli; label from the status in PepcDB or PDB records

Sequence	soluble on expression in E. coli
MSLNSVPNDLQTWKRFVKDGVLDEARLRKRIAESWHRCKKAEVNPYLEKGPKVLQQTELDQQSKKHSFFLTTAKPYLEKLLPAIKEMEMMALLIDSDGVVLALDGHPRALYEAKRINFVEGACWTETAVGTNAIGTALHISEPVAIQGSEHYSIASHLWNCSAAPIHHEDGSLAGVIDISCPAAGAHPHMLGIATAIAYAAERELAAKSREKELELISRFGERAASSVPMVLCNTKQHIISASMPIRTSMPDWQGRHLYELKERGYSIENAVTIGDGGTCFYLSEQKKKKAFRFNGVIGQSGRSQAMLMHLERAAATDASVCLSGETGTGKEVAARALHENSERRHGPFVAVNCGAIPSDLIESELFGYAEGAFTGAKRNGYKGAFQKANQGTLFLDEIGEISHSMQVALLRVLQERKITPIGGTKEIPVDIRVIAATHCDLRELAENGKIREDLFYRLHVYPIELPPLRDRTEDIPDLFEYYKQKNHWPGDLPSDFCNVLKQWKWPGNIRELFNVFERLSIRFPDGRLRDESLPALLEAAGLPASSAEKKPAAAGVLTFREQIQKDMMIKALESAKGNVSQAAKISGIPRSTFYKRLKKFNLSAESEGGSHHHHHH	soluble
MTIEEIARIVEGEILCGNKDLNIERAVATDLMSDVLAFAEPNVLLITGLHSPQAVRTAMVVGIPAVLFVRKRDIPETIVNFAKECNITVLATNLSMFETCGRLYMNGLKPVRRAIE	not soluble
MLYASLCRTPVFGILAQILCDIYSSIGCALSSFRSPLGPPFDFLFDTCSCQTARCFNKSKGVLITGSKLKAFRNPQPSWGFSVHKQVAALWQQLLSTGNVTRETDFFQQGGDSLLATRLTGQLHQAGYEAQLSDLFNHPRLADFAATLRKTDVPVEQPFVHSPEDRYQPFALTDVQQAYLVGRQPGFALGGVGSHFFVEFEIADLDLTRLETVWNRLIARHDMLRAVVRDGQQQVLEQTPRWVIPAHILHTPEEALQVREKLAHQVLNPEVWPVFDLQVGYVDGMPARLWLCLDNLLLDGLSMQILLAELEHGYQYPQQLPPPLPVTYRDYLQQPAIQSLNADSLAWWQAQLDDIPPAPALPLRCMPQDVETPRFARLNGALDSTRWHRLKKRAADAHLTPSAVLLSVWSTVLSAWSAQPEFTLNLTLFDRRPLHPQINQILGDFTSLMLLSWHPGESWLHSAQSLQQRLSQNLNHRDVSAIRVMRQLAQRQNVPAVPMPVVFTSALGFEQDNFLARRNLLKPVWGISQTPQVWLDHQVYESEGELRFNWDFVAALFPAGQVERQFEQYCTLLNRMTEDENSWHLPLAALVPPVKQAEQGTERTSRVCPEHSQSHIAADESTVSLICDAFREVVGESVTPAQNFFEAGATSLNLVQLHVLLQRHEFSTLTLLDLFTHPSPAALAAYLTSVATVEKTKRSRPVRRRQRRI	not soluble
GMGSYQLLVPPPEALSKPLSVPTRLLLGPGPSNLAPRVLAAGSLRMIGHMQKEMLQIMEEIKQGIQYVFQTRNPLTLVVSGSGHCAMETALFNLLEPGDSFLTGTNGIWGMRAAEIADRIGARVHQMIKKPGEHYTLQEVEEGLAQHKPVLLFLVHGESSTGVVQPLDGFGELCHRYQCLLLVDSVASLGGVPIYMDQQGIDIMYSSSQKVLNAPPGISLISFNDKAKYKVYSRKTKPVSFYTDITYLAKLWGCEGETRVIHHTTPVTSLYCLRESLALIAEQGLENCWRRHREATAHLHKHLQEMGLKFFVKDPEIRLPTITTVTVPAGYNWRDIVSYVLDHFSIEISGGLGPTEERVLRIGLLGYNATTENVDRVAEALREALQHCPKNKL	soluble
AMASASLCFLETENISKMAQILVDRCVEITNASFGFLYELVFGGDARILAVSSTAAVPAGGLCAQVKGHIEREGFFLVTPSDGLLFEPVKAGTTVLTNNPTTLDHLICRDSGNLGQINSFLGTPLKVGSRVVGMIGLTDRPDGFTDMERREIEAFAQTAALALHSARAEIEHKK	not soluble
AIAIRTKQSEAKSKGDTLRQLELAALMTHCNMLITHQQLALQAAMKLAYATKNYLYALAFAKRLLELAPNEEMERTAKKVMQFCERNPNNQNQLDYDIEQSNFAIDAGRLKPCIQPPTKSCVYCGACYDESWHSMTCVVCQVAQD	soluble
MGSHHHHHHDITSLYKKAGSENLYFQGMKFSEECRSAAAEWWEGSFVHPFVQGIGDGTLPIDRFKYYVLQDSYYLTHFAKVQSFGAAYAKDLYTTGRMASHAQGTYEAEMALHREFAELLEISEEERKAFKPSPTAYSFTSHMYRSVLSGNFAEILAALLPCYWLYYEVGEKLLHCDPGHPIYQKWIGTYGGDWFRQQVEEQINRFDELAENSTEEVRAKMKENFVISSYYEYQFWGMAYRKEGWSDSAIKEVEECGASRHNG	soluble
MQSRKRLDAELVRRKIARSREQAVEMIKDGRVHVQGFVAKKPATQVTPEASIRVEDAGLDDWASRGAHKLLGALAEFKSKGLNVSGRRALDAGASTGGFTDVLLRESASEVVAVDVGYGQLIWRLQNDARVKVLDRTNIRNLSLEITDGPCDLMVGDLSFISLKLTLPAIAACMSDGADLLPMVKPQFEVGKERLGHGGVVRDPKLRAEVTEDIALFAQQLGLSFVDVVASPLPGPSGNVEYFLWLKKDSGRSAKGLHEIHEKVAEAVQKGPQ	not soluble
GSFLLPKLTSKKEVDQAIKSTAEKVLVLRFGRDEDPVCLQLDDILSKTSSDLSKMAAIYLVDVDQTAVYTQYFDISYIPSTVFFFNGQHMKVDYGSPDHTKFVGSFKTKQDFIDLIEVIYRGAMRGKLIVQSPIDPKNIPKYDLLYQDI	soluble
MYTTQMDAAKKGIITDEMRIVAEKEGVHVEKLRELVASGKVVIPANKNHKKLEPQGIGEGLRTKINVNIGISKDCCNFEMELEKAKKAIELKAEAIMDLSSYGKTREFRRKLVEMSPVMIGTVPVYDAVGFYEKDLKDISAEEFFEVVEKHAEDGVDFMTIHAGINRETAKRFKENGRLTNIVSRGGSLIFAWMELTGNENPFYEQYDRLLQIFEKYDVTISLGDALRPGSINDSTDASQIQELIVLGELTKRAWEKNVQVMIEGPGHMAINEIAPNMVLEKKLCHGAPFYVLGPIVTDIAPGYDHITSAIGGAIAAANGADFLCYVTPAEHLRLPDIDDMKEGIIAARIAAHAADIAKGIKGAREWDYQMSEARRNLDWNRMFELAIDREKAERYRKSSMPEDEDTCTMCGRMCAVKNTNKALKGEKINIL	not soluble
MLIDSFEDLDGVIQEIKFRLTRAPMEMGRERECCVLSTSPGCRRAASFPFVGDSSIIQASSLKVRSKSESEALNKMRLTQMNLETVRKRLSESTIKEKDEGSDYQSHSSSSSECEVDDLELFCAGPLELKEEEKLRKSVRFADDCGHELYMVRVATEPSNCPPKLSPSVLRRYRGESFEEEEMTTREPAPVWNLMFKQPAADYVRFRENMETNKVSLENVILNNEAYKVMGTIKVGNIAFEKSVFVRYTMNGWISYMDKAAIYQPSTSKIQDTFKFDLDLPSSVEKIHQIEFCICFKANGTEYWDSNSGTNYVLHCEQQQHPAVPQQRRASLFGSSKYLDRDDAYKLDYNDWGKFASWKALSTDGPYW	soluble
MSNQYGDKNLKIFSLNSNPELAKEIADIVGVQLGKCSVTRFSDGEVQINIEESIRGCDCYIIQSTSDPVNEHIMELLIMVDALKRASAKTINIVIPYYGYARQDRKARSREPITAKLFANLLETAGATRVIALDLHAPQIQGFFDIPIDHLMGVPILGEYFEGKNLEDIVIVSPDHGGVTRARKLADRLKAPIAIIDKRRPRPNVAEVMNIVGNIEGKTAILIDDIIDTAGTITLAANALVENGAKEVYACCTHPVLSGPAVERINNSTIKELVVTNSIKLPEEKKIERFKQLSVGPLLAEAIIRVHEQQSVSYLFS	soluble
QKKIADRLMKFEEQLPEALDIIKRVLQAGQPITQAFGEVGREVSAPLGPEFLNTFNLLNYGYDLRLAIMQMSERTPTVSMLAFSSAVLLQKETGGNLVENIEKLSHILRARFKLARKIKTISAESRMS	not soluble
MSNIYDSANELSRGLRGLPEYKAVKAAKDAIAADAEASKIFTDYLAFQEEIQKLAQTGQMPDASFQAKMEGFGKQIQGNSLLSEFFTKQQQLAIYLSDIEKIVFEPVSELLK	soluble
MSTYYQSAPVLVHAHAYQPPLSPPQSPPHGYLPFYTSNPMMCSTSPLYFSPQMVQPLPPQQHYHMYPSTSAGPGMYYTDFNPHYVQIQISQSVSHDKILAGGPKDNCTVARGRKTHVDHRQLSIEKLHPLLLQFKLTTSELETNAYPMRRDGSTKAVSIADTVYTQNKKMFLDDYDMSRNCSRCNKEFKLSPNGTMIRSTGICRYHNRGVAINGKRDTFRKRYSCCNEEFNVALGCKFSDVHVTDQLFKKELSTFVSTPVPVPNDQRSTRVYALDCEMVYTIAGPALARLTMVDMQRNRVLDVFVKPPTDVLDPNTEFSGLTMEQINSAPDTLKTCHQKLFKYVNADTILIGHSLESDLKAMRVVHKNVIDTAILFRSTRDTKVALKVLSAKLLHKNIQGDNEDAIGHDSMEDALTCVDLIFYGLRNPESIAIREANTNC	not soluble
MLWTDCLTRLRQELSDNVFAMWIRPLVAEETTDSLRLYAPNPYWTRYIQEHHLELISILVEQLSEGRIRQVEILVDSRPGAILSPAEQPATTTAALSSTPVVPQRVKKEVVEPAATQSNKILNSKKRLLNPLFTFSLFVEGRSNQMAAETCRKVLTQLGASQHNPLFLYGPTGLGKTHLMQAVGNALLQAKPNARVMYMTAESFVQDFVSSLQKGKVEEFKKNCRSLDLLLVDDIHLLAGKEASLVEFFYTFNALLDESKQIILTSDRYPKELTELDPRLVSRFSWGLSVGVEPPDIETRIEILLKKAENSGVDLPRNCALFIAQQVVANVRELEGALNKVVAIARFKGSQIDLDVVRESLKDVLAIRARTISVENIQRVVSEYFRIPLKELIGPKRTRIYARPRQLAMGLARELTGDSFPEIGMAFGGRDHSTVMHACEKVQSLKQEDPIFNEDYKNLLRLLQSLEHHHHHH	not soluble
MTARTITDVITRPLPPLPLTAAASAEVLPDWAQPARRHPAAQPWPENLTRMAVGVVDSTGATGWFGPVSATVARMVFDQVAPAVIGRELAAWRAMASLAPHGRHRQGAHLRLAVSAVELAAWDLRSHATGVPVGALLAGERRERIPVYATALGIDIDHPLAPDIAAWLVDEGFWAQKWGLPGAARGETPRADAARLRRLREAAGERARIGVDVGGRWPADYARQMLPVLAEAGVCWVEEPGPISDADLARHGLARAAGEHDYEPTDQLRTLGGDIQIWQPDPTWCGGLAHTLSMVELAARLNIRSLPHGSGLAAALALAASAPAAAVPAIEYHLTLEPLRQDHQLDPLVPAAGHLDARTAAGLTSGYRFGEGDAGAAA	soluble
MQFEHLVQVNDRTLVDLPVLDRLQLWEGLVCRAREPQYFVVGLERFEILVDDGDRLHRRLYLPGLVVEDEVVLKAPDSAHYSIKPSAEVAGGSLDMTIEEPEPGSLFVRFAYCTRYLQPLGDELPYDAFVKQAYIAMDVETIATIRDRFGASAASGS	soluble
